Values of other authors as cited in publication PMC7788954.

Biological target: Sans SAM-PBM (Homo sapiens) (UniProt Q495M9)
Sequence (Q495M9 388-461): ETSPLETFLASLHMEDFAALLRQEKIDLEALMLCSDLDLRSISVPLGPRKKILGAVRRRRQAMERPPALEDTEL

harmonin N-terminal HHD-containing supramodule, sequence (Q9Y6N9 1-192): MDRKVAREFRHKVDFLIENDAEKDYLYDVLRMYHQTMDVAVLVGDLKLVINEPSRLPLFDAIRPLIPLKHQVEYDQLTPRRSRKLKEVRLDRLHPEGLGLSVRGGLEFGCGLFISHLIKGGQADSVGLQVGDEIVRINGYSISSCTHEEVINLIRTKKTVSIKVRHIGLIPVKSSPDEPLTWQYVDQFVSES

harmonin N-terminal HHD-containing supramodule (from UniProt Q9Y6N9)
Kd: 1 nM
